Target: T1, EGF receptor (on A431 cells) (UniProt P00533 25-1210, limits assumed)
T1 construct: whole, on cells; also called EGF receptors
Experiment: competition flow cytometry on A431 cells against mAb-108 (7.5 nM)
Procedure: (§1) Unbound scFv proteins were removed by washing following centrifugation (repeated 2-3 times). […] After two washes, the cells were incubated with an APC-labeled (allophycocyanin) anti-mouse antibody (10 ug/ml) for 30 minutes on ice. After washing the cells two times to remove the secondary antibody, the cells were re-suspended in FACS buffer supplemented with propidium iodine (0.5 ug/ml), and analyzed by flow cytometry. […] Fab binding was detected using an anti-His antibody followed by an APC-labeled anti-mouse secondary antibody.
(§2) Cells were incubated with the scFv proteins at various concentrations after washing to remove unbound scFv's, and the cells were treated with the mAb108 as described above. All proteins were expressed in the periplasm. Table 11 summarizes the binding of the modified scFv's (pAcF and pAcF with PEG) relative to the wild type scFv: […]

Binder	IC50 relative to wild type scFv	IC50
pAcF-scFv-108-(S136) (scFv, p-acetyl-phenylalanine (pAcF) in place of Ser136, X stands for pAcF; also called Ser136pAcF; pAcF-scFv-(S136)) scFv: QVQLQQSGAELMKPGASVKISCKATGYTFSSYWIEWVKQRPGHGLEWIGEILPGSKKTNYNEKFKGKATFTADTSSNTAYMQFSSLTSEDSAVYYCARYYYRNDDYGMDYWGQGTSVTVSSGGGGSGGGGSGGGGXGGGGSEIHMTQTTSSLSASLGDRVTISCSASQDIRNYLNWYQQKPDGTVKLLIYYTSTLHSGVPSRFSGSGSGTDYSLTISNLEPEDIATYYCQQYSKIPYTFTGGTKLEIKRADAAEQKLISEEDLNSAVDHHHHHH	1.6 x	–
scFv-108 Ser193pAcF (scFv, p-acetyl-phenylalanine (pAcF) in place of Ser193, X stands for pAcF) scFv: QVQLQQSGAELMKPGASVKISCKATGYTFSSYWIEWVKQRPGHGLEWIGEILPGSKKTNYNEKFKGKATFTADTSSNTAYMQFSSLTSEDSAVYYCARYYYRNDDYGMDYWGQGTSVTVSSGGGGSGGGGSGGGGSGGGGSEIHMTQTTSSLSASLGDRVTISCSASQDIRNYLNWYQQKPDGTVKLLIYYTXTLHSGVPSRFSGSGSGTDYSLTISNLEPEDIATYYCQQYSKIPYTFTGGTKLEIKRADAAEQKLISEEDLNSAVDHHHHHH	1.8 x	–
pAcF-scFv-108-(S131) (scFv, p-acetyl-phenylalanine (pAcF) in place of Ser131, S131 is the second serine of the GlySer linker; X stands for pAcF; also called Ser131pAcF; S131Am) scFv: QVQLQQSGAELMKPGASVKISCKATGYTFSSYWIEWVKQRPGHGLEWIGEILPGSKKTNYNEKFKGKATFTADTSSNTAYMQFSSLTSEDSAVYYCARYYYRNDDYGMDYWGQGTSVTVSSGGGGSGGGGXGGGGSGGGGSEIHMTQTTSSLSASLGDRVTISCSASQDIRNYLNWYQQKPDGTVKLLIYYTSTLHSGVPSRFSGSGSGTDYSLTISNLEPEDIATYYCQQYSKIPYTFTGGTKLEIKRADAAEQKLISEEDLNSAVDHHHHHH	1.3 x	–
scFv-108 Ser259pAcF (scFv, p-acetyl-phenylalanine (pAcF) in place of Ser259, X stands for pAcF) scFv: QVQLQQSGAELMKPGASVKISCKATGYTFSSYWIEWVKQRPGHGLEWIGEILPGSKKTNYNEKFKGKATFTADTSSNTAYMQFSSLTSEDSAVYYCARYYYRNDDYGMDYWGQGTSVTVSSGGGGSGGGGSGGGGSGGGGSEIHMTQTTSSLSASLGDRVTISCSASQDIRNYLNWYQQKPDGTVKLLIYYTSTLHSGVPSRFSGSGSGTDYSLTISNLEPEDIATYYCQQYSKIPYTFTGGTKLEIKRADAAEQKLIXEEDLNSAVDHHHHHH	0.5 x	–
pAcF-scFv-108-(L156) conjugated to 5K PEG (scFv, p-acetyl-phenylalanine (pAcF) in place of Leu156, conjugated to mono-functional hydroxylamine 5K PEG, also called Leu156pAcF-5K PEG) scFv: QVQLQQSGAELMKPGASVKISCKATGYTFSSYWIEWVKQRPGHGLEWIGEILPGSKKTNYNEKFKGKATFTADTSSNTAYMQFSSLTSEDSAVYYCARYYYRNDDYGMDYWGQGTSVTVSSGGGGSGGGGSGGGGSGGGGSEIHMTQTTSSLSASXGDRVTISCSASQDIRNYLNWYQQKPDGTVKLLIYYTSTLHSGVPSRFSGSGSGTDYSLTISNLEPEDIATYYCQQYSKIPYTFTGGTKLEIKRADAAEQKLISEEDLNSAVDHHHHHH	2.9 x	–
scFv-108 His144pAcF (scFv, p-acetyl-phenylalanine (pAcF) in place of His144, X stands for pAcF) scFv: QVQLQQSGAELMKPGASVKISCKATGYTFSSYWIEWVKQRPGHGLEWIGEILPGSKKTNYNEKFKGKATFTADTSSNTAYMQFSSLTSEDSAVYYCARYYYRNDDYGMDYWGQGTSVTVSSGGGGSGGGGSGGGGSGGGGSEIXMTQTTSSLSASLGDRVTISCSASQDIRNYLNWYQQKPDGTVKLLIYYTSTLHSGVPSRFSGSGSGTDYSLTISNLEPEDIATYYCQQYSKIPYTFTGGTKLEIKRADAAEQKLISEEDLNSAVDHHHHHH	2.6 x	–
pAcF-scFv-108-(S136) conjugated to 5K PEG (scFv, p-acetyl-phenylalanine (pAcF) in place of Ser136, conjugated to mono-functional hydroxylamine 5K PEG, also called Ser136pAcF-5K PEG) scFv: QVQLQQSGAELMKPGASVKISCKATGYTFSSYWIEWVKQRPGHGLEWIGEILPGSKKTNYNEKFKGKATFTADTSSNTAYMQFSSLTSEDSAVYYCARYYYRNDDYGMDYWGQGTSVTVSSGGGGSGGGGSGGGGXGGGGSEIHMTQTTSSLSASLGDRVTISCSASQDIRNYLNWYQQKPDGTVKLLIYYTSTLHSGVPSRFSGSGSGTDYSLTISNLEPEDIATYYCQQYSKIPYTFTGGTKLEIKRADAAEQKLISEEDLNSAVDHHHHHH	6.3 x	–
pAcF-scFv-108-(S131) conjugated to 5K PEG (scFv, p-acetyl-phenylalanine (pAcF) in place of Ser131, conjugated to mono-functional hydroxylamine 5K PEG, also called Ser131pAcF-5K PEG) scFv: QVQLQQSGAELMKPGASVKISCKATGYTFSSYWIEWVKQRPGHGLEWIGEILPGSKKTNYNEKFKGKATFTADTSSNTAYMQFSSLTSEDSAVYYCARYYYRNDDYGMDYWGQGTSVTVSSGGGGSGGGGXGGGGSGGGGSEIHMTQTTSSLSASLGDRVTISCSASQDIRNYLNWYQQKPDGTVKLLIYYTSTLHSGVPSRFSGSGSGTDYSLTISNLEPEDIATYYCQQYSKIPYTFTGGTKLEIKRADAAEQKLISEEDLNSAVDHHHHHH	5 x	–
scFv-108 wild type (periplasmic, VH-(GGGGS)4-VL-myc-6xHis) (scFv, also called WT scFv) scFv: QVQLQQSGAELMKPGASVKISCKATGYTFSSYWIEWVKQRPGHGLEWIGEILPGSKKTNYNEKFKGKATFTADTSSNTAYMQFSSLTSEDSAVYYCARYYYRNDDYGMDYWGQGTSVTVSSGGGGSGGGGSGGGGSGGGGSEIHMTQTTSSLSASLGDRVTISCSASQDIRNYLNWYQQKPDGTVKLLIYYTSTLHSGVPSRFSGSGSGTDYSLTISNLEPEDIATYYCQQYSKIPYTFTGGTKLEIKRADAAEQKLISEEDLNSAVDHHHHHH	1 x	0.0081 µM
scFv-108 Tyr190pAcF (scFv, p-acetyl-phenylalanine (pAcF) in place of Tyr190, X stands for pAcF) scFv: QVQLQQSGAELMKPGASVKISCKATGYTFSSYWIEWVKQRPGHGLEWIGEILPGSKKTNYNEKFKGKATFTADTSSNTAYMQFSSLTSEDSAVYYCARYYYRNDDYGMDYWGQGTSVTVSSGGGGSGGGGSGGGGSGGGGSEIHMTQTTSSLSASLGDRVTISCSASQDIRNYLNWYQQKPDGTVKLLIXYTSTLHSGVPSRFSGSGSGTDYSLTISNLEPEDIATYYCQQYSKIPYTFTGGTKLEIKRADAAEQKLISEEDLNSAVDHHHHHH	2.1 x	–
scFv-108 Lys248pAcF (scFv, p-acetyl-phenylalanine (pAcF) in place of Lys248, X stands for pAcF) scFv: QVQLQQSGAELMKPGASVKISCKATGYTFSSYWIEWVKQRPGHGLEWIGEILPGSKKTNYNEKFKGKATFTADTSSNTAYMQFSSLTSEDSAVYYCARYYYRNDDYGMDYWGQGTSVTVSSGGGGSGGGGSGGGGSGGGGSEIHMTQTTSSLSASLGDRVTISCSASQDIRNYLNWYQQKPDGTVKLLIYYTSTLHSGVPSRFSGSGSGTDYSLTISNLEPEDIATYYCQQYSKIPYTFTGGTKLEIXRADAAEQKLISEEDLNSAVDHHHHHH	2.1 x	–
pAcF-scFv-108-(L156) (scFv, p-acetyl-phenylalanine (pAcF) in place of Leu156, L156 lies in the VL chain; X stands for pAcF; also called Leu156pAcF) scFv: QVQLQQSGAELMKPGASVKISCKATGYTFSSYWIEWVKQRPGHGLEWIGEILPGSKKTNYNEKFKGKATFTADTSSNTAYMQFSSLTSEDSAVYYCARYYYRNDDYGMDYWGQGTSVTVSSGGGGSGGGGSGGGGSGGGGSEIHMTQTTSSLSASXGDRVTISCSASQDIRNYLNWYQQKPDGTVKLLIYYTSTLHSGVPSRFSGSGSGTDYSLTISNLEPEDIATYYCQQYSKIPYTFTGGTKLEIKRADAAEQKLISEEDLNSAVDHHHHHH	1.8 x	–

Target: T1, EGF receptor (on A431 cells)
Experiment: flow cytometry on A431 cells; Fab detected with anti-His antibody and APC-labeled anti-mouse antibody
Procedure: as §1
PEGylation of the Fab fragments results in a minimal decrease in the affinity of the fragments to the EGF receptors. Binding conditions were as described previously.

Binder	EC50	EC50 relative to wild type Fab
Fab-108 wild type (Fab, they may include leaders; also called WT Fab; Fab108 WT) light: TMELEIHMTQTTSSLSASLGDRVTISCSASQDIRNYLNWYQQKPDGTVKLLIYYTSTLHSGVPSRFSGSGSGTDYSLTISNLEPEDIATYYCQQYSKIPYTFTGGTKLEIKRADAAKLEIKRTVAAPSVFIFPPSDEQLKSGTASVVCLLNNFYPREAKVQWKVDNALQSGNSQESVTEQDSKDSTYSLSSTLTLSKADYEKHKVYACEVTHQGLSSPVTKSFNRGEC heavy: QVQLLEQVQLQQSGAELMKPGASVKISCKATGYTFSSYWIEWVKQRPGHGLEWIGEILPGSKKTNYNEKFKGKATFTADTSSNTAYMQFSSLTSEDSAVYYCARYYYRNDDYGMDYWGQGTSVTVSSAGPSVFPLAPSSKSTSGGTAALGCLVKDYFPEPVTVSWNSGALTSGVHTFPAVLQSSGLYSLSSVVTVPSSSLGTQTYICNVNHKPSNTKVDKKVEPKSCDKHHHHHH	0.004 µM	1 x

Target: T1, EGF receptor (on A431 cells)
Experiment: Flow cytometry competition on A431 cells expressing EGF receptors: cells incubated with the scFv at varied concentration and washed, then mAb108 (competitor, 7.5 nM) detected with APC-labeled anti-mouse antibody; y axis Median
Procedure: as §1, §2

Binder	IC50
pAcF-scFv-108-(S136) (scFv, p-acetyl-phenylalanine (pAcF) in place of Ser136, X stands for pAcF; also called Ser136pAcF; pAcF-scFv-(S136)) scFv: QVQLQQSGAELMKPGASVKISCKATGYTFSSYWIEWVKQRPGHGLEWIGEILPGSKKTNYNEKFKGKATFTADTSSNTAYMQFSSLTSEDSAVYYCARYYYRNDDYGMDYWGQGTSVTVSSGGGGSGGGGSGGGGXGGGGSEIHMTQTTSSLSASLGDRVTISCSASQDIRNYLNWYQQKPDGTVKLLIYYTSTLHSGVPSRFSGSGSGTDYSLTISNLEPEDIATYYCQQYSKIPYTFTGGTKLEIKRADAAEQKLISEEDLNSAVDHHHHHH	0.0131 µM
pAcF-scFv-108-(S136) conjugated to 5K PEG (scFv, p-acetyl-phenylalanine (pAcF) in place of Ser136, conjugated to mono-functional hydroxylamine 5K PEG, also called Ser136pAcF-5K PEG) scFv: QVQLQQSGAELMKPGASVKISCKATGYTFSSYWIEWVKQRPGHGLEWIGEILPGSKKTNYNEKFKGKATFTADTSSNTAYMQFSSLTSEDSAVYYCARYYYRNDDYGMDYWGQGTSVTVSSGGGGSGGGGSGGGGXGGGGSEIHMTQTTSSLSASLGDRVTISCSASQDIRNYLNWYQQKPDGTVKLLIYYTSTLHSGVPSRFSGSGSGTDYSLTISNLEPEDIATYYCQQYSKIPYTFTGGTKLEIKRADAAEQKLISEEDLNSAVDHHHHHH	0.051 µM
